# In US20140295512A1, “Ketol-Acid Reductoisomerases With Improved Performance Properties” (CALIFORNIA INSTITUTE OF TECHNOLOGY, priority 2011, published 2014):
# Where a chain is given by its changes, count along the chain named. Names may count otherwise.
# B1: Se1_KARI^GE11-his6: S. exigua KARI variant G60V (protein, UniProt D0WGK0 1-342, looked up, variant G60V)
# Ketol-acid reductoisomerase …: MSVKTKEKEMAVTILYEQDVDPKVIQGLKVGIIGYGSQGHAHALNLMDSGVDVRVGLREVSSSWKTAEEAGLKVTDMDTAAEEADVIMVLVPDEIQPKVYQEHIAAHLKAGNTLAFAHGFNIHYGYIVPPEDVNVIMCAPKGPGHIVRRQFTEGSGVPDLACVQQDATGNAWDIVLSYCWGVGGARSGIIKATFAEETEEDLFGEQAVLCGGLVELVKAGFETLTEAGYPPELAYFECYHEMKMIVDLMYESGIHFMNYSISNTAEYGEYYAGPKVINEQSREAMKEILKRIQDGSFAQEFVDDCNNGHKRLLEQREAINTHPIETTGAQIRSMFSWIKKED
# modifications: His6 tag
# notes: S. exigua KARI variant G60V
# B2: Se1_KARI^14B7: S. exigua KARI variant Y35H, S63D, I95V (protein, UniProt D0WGK0 1-342, looked up, variant Y35H S63D I95V)
# Ketol-acid reductoisomerase …: B1 Ketol-acid reductoisomerase … with Y35H, V60G, S63D, I95V
# B3: Se1_KARI^2C6: S. exigua KARI variant L57V, R58P (protein, UniProt D0WGK0 1-342, looked up, variant L57V R58P)
# Ketol-acid reductoisomerase …: B1 Ketol-acid reductoisomerase … with L57V, R58P, V60G
# B4: Se1_KARI^1A8: S. exigua KARI variant G60V, I95V, V99L (protein, UniProt D0WGK0 1-342, looked up, variant G60V I95V V99L)
# Ketol-acid reductoisomerase …: B1 Ketol-acid reductoisomerase … with I95V, V99L
# B5: Se1_KARI^AC1: S. exigua KARI variant S63D, I95A (protein, UniProt D0WGK0 1-342, looked up, variant S63D I95A)
# Ketol-acid reductoisomerase …: B1 Ketol-acid reductoisomerase … with V60G, S63D, I95A
# B6: Se1_KARI^JB7-his6: S. exigua KARI variant S63Q (protein, UniProt D0WGK0 1-342, looked up, variant S63Q)
# Ketol-acid reductoisomerase …: B1 Ketol-acid reductoisomerase … with V60G, S63Q
# modifications: His6 tag
# notes: S. exigua KARI variant S63Q
# B7: Se1_KARI^LE1-his6: S. exigua KARI variant I95V (protein, UniProt D0WGK0 1-342, looked up, variant I95V)
# Ketol-acid reductoisomerase …: B1 Ketol-acid reductoisomerase … with V60G, I95V
# modifications: His6 tag
# notes: S. exigua KARI variant I95V
# B8: Se1_KARI^1H1: S. exigua KARI variant R58P, S61C (protein, UniProt D0WGK0 1-342, looked up, variant R58P S61C)
# Ketol-acid reductoisomerase …: B1 Ketol-acid reductoisomerase … with R58P, V60G, S61C
# B9: Se1_KARI^13G6: S. exigua KARI variant G60V, I95A (protein, UniProt D0WGK0 1-342, looked up, variant G60V I95A)
# Ketol-acid reductoisomerase …: B1 Ketol-acid reductoisomerase … with I95A
# B10: Se1_NKR^Gen6-his6: S. exigua KARI variant S61D, S63D, I95V (protein, UniProt D0WGK0 1-342, looked up, variant S61D S63D I95V)
# Ketol-acid reductoisomerase …: B1 Ketol-acid reductoisomerase … with V60G, S61D, S63D, I95V
# modifications: His6 tag
# notes: S. exigua KARI variant S61D, S63D, I95V
# B11: Se1_KARI^HF2-his6: S. exigua KARI variant S61C (protein, UniProt D0WGK0 1-342, looked up, variant S61C)
# Ketol-acid reductoisomerase …: B1 Ketol-acid reductoisomerase … with V60G, S61C
# modifications: His6 tag
# notes: S. exigua KARI variant S61C
# B12: Se1_KARI^LE9-his6: S. exigua KARI variant I95T (protein, UniProt D0WGK0 1-342, looked up, variant I95T)
# Ketol-acid reductoisomerase …: B1 Ketol-acid reductoisomerase … with V60G, I95T
# modifications: His6 tag
# notes: S. exigua KARI variant I95T
# B13: Se1_KARI^MH9-his6: S. exigua KARI variant V99L (protein, UniProt D0WGK0 1-342, looked up, variant V99L)
# Ketol-acid reductoisomerase …: B1 Ketol-acid reductoisomerase … with V60G, V99L
# modifications: His6 tag
# notes: S. exigua KARI variant V99L
# B14: Se1_KARI^EA8-his6: S. exigua KARI variant L57S (protein, UniProt D0WGK0 1-342, looked up, variant L57S)
# Ketol-acid reductoisomerase …: B1 Ketol-acid reductoisomerase … with L57S, V60G
# modifications: His6 tag
# notes: S. exigua KARI variant L57S
# B15: Se1_KARI^CD10-his6: S. exigua KARI variant Y35H (protein, UniProt D0WGK0 1-342, looked up, variant Y35H)
# Ketol-acid reductoisomerase …: B1 Ketol-acid reductoisomerase … with Y35H, V60G
# modifications: His6 tag
# notes: S. exigua KARI variant Y35H
# B16: Zm: Zymomonas mobilis KARI homolog (protein, UniProt Q9X5F8 1-339, looked up)
# Ketol-acid reductoisomerase …: MKVYYDSDADLGLIKSKKIAILGYGSQGHAHAQNLRDSGVAEVAIALRPDSASVKKAQDAGFKVLTNAEAAKWADILMILAPDEHQAAIYAEDLKDNLRPGSAIAFAHGLNIHFGLIEPRKDIDVFMIAPKGPGHTVRSEYVRGGGVPCLVAVDQDASGNAHDIALAYASGIGGGRSGVIETTFREEVETDLFGEQAVLCGGLTALITAGFETLTEAGYAPEMAFFECMHEMKLIVDLIYEAGIANMRYSISNTAEYGDIVSGPRVINEESKKAMKAILDDIQSGRFVSKFVLDNRAGQPELKAARKRMAAHPIEQVGARLRKMMPWIASNKLVDKARN
# Test: KARI assay of purified S. exigua KARI and variants with NADPH (Examples 6-9)
# Assay type: biochemical
# Settings: not given
# Experimental: (§1) S. exigua KARI activity or activities of its variants were assayed kinetically by monitoring the decrease in NADPH or NADH concentration by measuring the change in absorbance at 340 nm. An assay buffer was prepared containing 100 mM potassium phosphate pH 7.0, 1 mM DTT, 2.5 mM (S)-2-acetolactate, and 10 mM MgCl2 (final concentrations in the 1-mL assay, accounting for dilution with enzyme and cofactor). Fifty μL purified enzyme and 930 μL of the assay buffer were placed into a 1-mL cuvette. The reaction was initiated by addition of 20 μL NADPH or NADH (200 μM final concentration) for a general activity assay. Michaelis-Menten constants of the cofactors were determined with varying concentrations of NADPH (200-12 μM final) or NADH (200-6 μM final).
row,Molecule,kcat NADPH
1,B1,2 s⁻¹
2,B2,1.4 s⁻¹
3,B3,0.80 s⁻¹
4,B4,0.79 s⁻¹
5,B5,1 s⁻¹
6,B6,1.5 s⁻¹
7,B7,1.00 s⁻¹
8,B8,0.65 s⁻¹
9,B9,0.90 s⁻¹
10,B10,0.18 ± 0.00 s⁻¹
11,B11,0.57 s⁻¹

# Same assay, conditions: cofactor NADPH
row,Molecule,U/mg NADPH (specific activity)
1,B1,0.8 U/mg
2,B2,0.56 U/mg
3,B3,0.33 U/mg
4,B4,0.32 U/mg
5,B5,0.4 U/mg
6,B6,0.6 U/mg
7,B12,0.56 U/mg
8,B13,0.34 U/mg
9,B14,0.25 U/mg
10,B7,0.4 U/mg
11,B15,0.19 U/mg
12,B8,0.26 U/mg
13,B9,0.37 U/mg
14,B10,0.07 ± 0.0 U/mg
15,B11,0.23 U/mg

# Same assay, conditions: cofactor NADPH; listed as Se1_KARI^LE1
row,Molecule,U/mg NADPH (specific activity)
1,B7,0.40 U/mg

# Same assay, conditions: read-out: Km for cofactor NADPH
row,Molecule,Km
1,B5,45 µM
2,B9,< 1 µM
3,B10,> 1000 µM

# Test: KARI enzyme assay on cell lysates with NADH and NADPH as cofactors
# Assay type: biochemical
# Settings: not given
# Experimental: In this example, different KARI enzymes (Table 7) were screened for their activity with NADH and NADPH as cofactor. The enzymes were expressed in an S. cerevisiae strain by means of 2 micron plasmids carrying the KARI genes under the control of the S. cerevisiae TDH3 promoter. The transformants were cultivated in shake flask fermentations as described below and samples were taken after 44 h, centrifuged at 4000×g for 10 mins at 4° C. and the cell pellets were stored at −80° C. until analysis. The pellets were lysed by bead beating and the lysates were analyzed by KARI activity assay as described below using NADH and NADPH as cofactors.
# Patched cells (or single colonies) grown on YPD+G418 plates at 30° C. were mixed into 3 mL YP+12% dextrose+200 mM MES, pH 6.5+G418, in 14 mL culture tubes and incubated at 250 RPM, 30° C. for ˜24 hours. The cells from the cultures were used to inoculate YP+12% dextrose+200 mM MES, pH 6.5+G418, in non-baffled flasks with a vented grey screw-caps at OD600 0.01. The cultures were incubated at 250 RPM, 30° C. for 24 hours, diluted 1:3 and incubated for another 20 h at 250 RPM, 30° C. Samples for enzyme assay pellets and protein quantification pellets were taken from each shake flask, and cell-free supernatant was used to measure glucose levels in shake flasks.
# The assay and no substrate control reactions were performed in triplicate for each sample. The following stock solutions were prepared: 1 M potassium phosphate, pH 7, 0.1 M MgCl2, 100 mM DTT, 25 mM NADH or NADPH, 200 mM 2-acetolactate. The 2-acetolactate was made fresh each time by mixing 50 μL Ethyl-2-acetoxy-2-methylacetoacetate (EAMAA) with 990 μL water. Gradually 260 μL of 2 N NaOH was added in 10 μL increments to the EAMAA water mixture. After each addition the sample was vortexed for 15 seconds, and the procedure repeated until the entire 260 μL of 2 N NaOH was added. Afterwards the solution was mixed on an orbital shaker for 20 min (Krampitz, 1957). KARI reaction buffer (100 μL per reaction) was prepared to the following concentrations: 250 mM potassium phosphate, pH 7, 10 mM MgCl2, 1 mM DTT, 0.2 mM NADH or NADPH, 10 mM 2-acetolactate. For the no substrate controls, the 2-acetolactate was substituted with water. 10 μL of each lysate were transferred into a 96 well half area assay plate. The reaction was started with 90 μL of reaction buffer to each well using a multichannel pipette. The samples were mixed immediately. The samples were read at 340 nm every 10 s for 5 min.
row,Molecule,Specific Activity with NADH/Specific Activity with NADPH
1,B16,0.074

# Same assay, conditions: empty vector control subtracted
row,Molecule,NADH-Dependent Specific Activity
1,B16,0.002 U/mg lysate

# Test: KARI assay of purified S. exigua KARI and variants with NADH (Examples 6-9)
# Assay type: biochemical
# Settings: not given
# Experimental: as §1
Molecule,kcat NADH,kcat/Km ratio NADH/NADPH (cofactor specificity)
B1,1 s⁻¹,–
B2,0.45 s⁻¹,–
B3,0.55 s⁻¹,–
B4,0.65 s⁻¹,–
B5,0.5 s⁻¹,0.3
B6,0.69 s⁻¹,–
B7,0.74 s⁻¹,–
B8,0.50 s⁻¹,–
B9,0.74 s⁻¹,0.03
B10,1 ± 0.01 s⁻¹,87
B11,0.45 s⁻¹,–

# Same assay, conditions: cofactor NADH
row,Molecule,U/mg NADH (specific activity)
1,B1,0.4 U/mg
2,B2,0.18 U/mg
3,B3,0.22 U/mg
4,B4,0.26 U/mg
5,B5,0.2 U/mg
6,B6,0.28 U/mg
7,B12,0.32 U/mg
8,B13,0.21 U/mg
9,B14,0.19 U/mg
10,B7,0.3 U/mg
11,B15,0.13 U/mg
12,B8,0.20 U/mg
13,B9,0.30 U/mg
14,B10,0.4 ± 0.01 U/mg
15,B11,0.18 U/mg

# Same assay, conditions: cofactor NADH; listed as Se1_KARI^GE11
row,Molecule,U/mg NADH (specific activity)
1,B1,0.40 U/mg

# Same assay, conditions: cofactor NADH; listed as Se1_KARI^LE1
row,Molecule,U/mg NADH (specific activity)
1,B7,0.30 U/mg

# Same assay, conditions: read-out: Km for cofactor NADH
row,Molecule,Km
1,B5,68 µM
2,B7,19 µM
3,B9,34 µM
4,B10,47 ± 15 µM
5,B11,43.8 µM

# Same assay, conditions: specific activity ratio
row,Molecule,Ratio NADH/NADPH (U/mg)
1,B1,0.48
2,B2,0.32
3,B3,0.7
4,B4,0.8
5,B5,0.5
6,B6,0.47
7,B12,0.58
8,B13,0.64
9,B14,0.76
10,B7,0.8
11,B15,0.68
12,B8,0.8
13,B9,0.8
14,B10,5.7
15,B11,0.78

# Same assay, conditions: specific activity ratio; listed as Se1_KARI^GE11
row,Molecule,Ratio NADH/NADPH (U/mg)
1,B1,0.50
